Tested on: T1, peptide LPETGGG bridging variable regions 4 and 5 (var 4-LPETGGG-var 5)
T1 sequence: LPETGGG

## sortase (Chen et. al, 2011)
  kligation (sortase-catalyzed transpeptidation, loop opening on gel, room temperature): kligation=11±1.3 min
